Experimental data from US10400249B2, “HPPD variants and methods of use” (priority 2014, dated 2019).

Test system: Pseudomonas fluorescens HPPD protein
Assay: OD assay: HPPD activity and pI50 from HPP remaining after derivatisation with DNP
Format: biochemical
Settings: for Activity DeltaE/24 min μg Protein: HPPD enzyme activity of the clone; for tolerance (pI50) DKN: inhibitor diketonitrile (DKN), negative log of molar concentration; for tolerance (pI50) MST: inhibitor mesotrione (MST); for tolerance (pI50) Cmpd. 2: inhibitor Cmpd. 2; for tolerance (pI50) TBT: inhibitor tembotrione (TBT)
Experimental: HPPD proteins were produced and purified as described in WO2011/076882. The activity of HPPD proteins in absence or presence of HPPD inhibitors was determined using either the so called OD assay or the HGD assay.
• a) The OD assay: The HPPD activity was determined colourimetrically by measuring the amount of HPP remaining in the assay mixture at the end of the incubation period after derivatisation of HPP with 2,4-dinitrophenylhydrazine (DNP) to form an amber-brown colored 2,4-dinitrophenylhydrazone under alkaline conditions. The assay was carried out at room temperature in Greiner F-bottom 96 well microplates. The assay mixture contained 50 mM Tris-HCl pH 7.8, 0.5 mM HPP, 10 mM ascorbate, 650 units of catalase and appropriate amounts of purified HPPD enzyme in a total assay volume of 100 μl. The reaction was started by the addition of enzyme. After an incubation time of 24 minutes, the reaction was stopped by the addition of 50 μl of a solution of 0.04% DNP dissolved in 3.8 N HCl. After a further 15-minute incubation period 100 μl of a 5 N KOH solution was added to the reaction mixture and the amount of unconsumed HPP was measured photometrically at 405 nm. Enzyme activity was calculated as the difference in E405 between assays lacking enzyme (negative control) and the enzyme containing assays (ΔE405=E405(negative control)−E405). Enzyme activity (nmol substrate consumed per min) was calculated from a calibration curve generated from HPP. pI50-values (the negative log value of the concentration of inhibitor necessary to inhibit 50% of the enzyme activity in molar concentration were determined from dose-response plots of HPPD activity versus inhibitor concentration tested (5.0×10^−6, 1.0×10^−5, 2.5×10^−5, 4.0×10^−5, 7.0×10^−5, 1.0×10^−4, 2.0×10^−4 and 5.0×10^−4M) using the 4 Parameter Logistic Model or Sigmoidal Dose-Response Model of the ID Business Solutions Ltd. XLfit software suite. The result “>5.6” means that the inhibition at the lowest inhibitor concentration tested was higher than 85% and the pI50-value could therefore not be precisely calculated within in the range of concentration of inhibitor tested. The result “<2.5” means that the inhibition at the highest inhibitor concentration tested was lower than 25% and the pI50-value could therefore not be precisely calculated within in the range of concentration of inhibitor tested. “n.d.” means not determined. • b) The HGD assay: With the HGD assay HPPD activity was measured at room temperature by adding appropriate amounts of HPPD to a solution of 200 mM Tris-HCl pH 7.6, 10 mM ascorbate, 20 μM FeSO4, 650 units of catalase, 8 μg HGA dioxygenase (HGA: homogentisate) and 600 μM HPP in a total volume of 1 ml. Initial reaction rates in the absence or presence of inhibitors were determined from the increase in absorbance at 318 nm due to the formation of maleylacetoacetate (ε318=11,900 M−1 cm-1). pI50-values (the negative log value of the concentration of inhibitor necessary to inhibit 50% of the enzyme activity in molar concentration were determined from dose-response plots of HPPD activity versus inhibitor concentration tested using the 4 Parameter Logistic Model or Sigmoidal Dose-Response Model of the ID Business Solutions Ltd. XLfit software suite. Due to the UV absorption of the HPPD inhibitors tested, inhibitor concentrations >100 μM could not be tested. The result “<4” means that the inhibition at 100 μM inhibitor concentration was lower than 25% and the pI50-value could therefore not be precisely calculated within in the range of concentration of inhibitor tested. “n.d.” means not determined. The HGD assay allowed to continuously follow HPPD-catalyzed HGA formation over time was therefore used to determine the inhibition type of the HPPD inhibitors tested. […] When in the presence of an inhibitor the HPPD activity was inhibited but the inhibition was found not to […] in a time-dependent manner, the inhibitor was called reversible (abbreviation “rev”). […]

| Molecule | Activity DeltaE/24 min μg Protein | tolerance (pI50) DKN | tolerance (pI50) MST | tolerance (pI50) Cmpd. 2 | tolerance (pI50) TBT |
| --- | --- | --- | --- | --- | --- |
| C959: reference PfHPPD mutant E335P (protein, HPPD variant - C959) MADLYENPMGLMGFEFIEFASPTPGTLEPIFEIMGFTKVATHRSKNVHLYRQGEINLILNNEPNSIASYFAAEHGPSVCGMAFRVKDSQKAYNRALELGAQPIHIDTGPMELNLPAIKGIGGAPLYLIDRFGEGSSIYDIDFVYLEGVERNPVGAGLKVIDHLTHNVYRGRMVYWANFYEKLFNFREARYFDIKGEYTGLTSKAMSAPDGMIRIPLNEESSKGAGQIEEFLMQFNGEGIQHVAFLTDDLVKTWDALKKIGMRFMTAPPDTYYEMLEGRLPDHGEPVDQLQARGILLDGSSVEGDKRLLLQIFSETLMGPVFFEFIQRKGDDGFGPGNFKALFESIERDQVRRGVLTAD | 0.09 DeltaE/24 min μg Protein | 5.5 | >5.6 | – | – |
| K299: PfHPPD carrying only the P215L mutation, used as a second reference (protein, HPPD variant - K299) MADLYENPMGLMGFEFIEFASPTPGTLEPIFEIMGFTKVATHRSKNVHLYRQGEINLILNNEPNSIASYFAAEHGPSVCGMAFRVKDSQKAYNRALELGAQPIHIDTGPMELNLPAIKGIGGAPLYLIDRFGEGSSIYDIDFVYLEGVERNPVGAGLKVIDHLTHNVYRGRMVYWANFYEKLFNFREARYFDIKGEYTGLTSKAMSAPDGMIRILLNEESSKGAGQIEEFLMQFNGEGIQHVAFLTDDLVKTWDALKKIGMRFMTAPPDTYYEMLEGRLPDHGEPVDQLQARGILLDGSSVEGDKRLLLQIFSETLMGPVFFEFIQRKGDDGFGEGNFKALFESIERDQVRRGVLTAD | 0.17 DeltaE/24 min μg Protein | 5.1 | 5.5 | >5.6 | >5.6 |
| K405: PfHPPD variant A188G, R189C, P215A, E335P, G336F, A340E (protein, HPPD variant - K405, PfHPPD variant A188G, R189C, P215A, E335P, G336F, A340E) MADLYENPMGLMGFEFIEFASPTPGTLEPIFEIMGFTKVATHRSKNVHLYRQGEINLILNNEPNSIASYFAAEHGPSVCGMAFRVKDSQKAYNRALELGAQPIHIDTGPMELNLPAIKGIGGAPLYLIDRFGEGSSIYDIDFVYLEGVERNPVGAGLKVIDHLTHNVYRGRMVYWANFYEKLFNFREGCYFDIKGEYTGLTSKAMSAPDGMIRIALNEESSKGAGQIEEFLMQFNGEGIQHVAFLTDDLVKTWDALKKIGMRFMTAPPDTYYEMLEGRLPDHGEPVDQLQARGILLDGSSVEGDKRLLLQIFSETLMGPVFFEFIQRKGDDGFGPFNFKELFESIERDQVRRGVLTAD | 0.16 DeltaE/24 min μg Protein | 3.3 | 3.7 | 4.9 | 4.8 |
| PfHPPD: wild-type Pseudomonas fluorescens HPPD, reference protein (protein, Pseudomonas Fluorescens) MADLYENPMGLMGFEFIEFASPTPGTLEPIFEIMGFTKVATHRSKNVHLYRQGEINLILNNEPNSIASYFAAEHGPSVCGMAFRVKDSQKAYNRALELGAQPIHIDTGPMELNLPAIKGIGGAPLYLIDRFGEGSSIYDIDFVYLEGVERNPVGAGLKVIDHLTHNVYRGRMVYWANFYEKLFNFREARYFDIKGEYTGLTSKAMSAPDGMIRIPLNEESSKGAGQIEEFLMQFNGEGIQHVAFLTDDLVKTWDALKKIGMRFMTAPPDTYYEMLEGRLPDHGEPVDQLQARGILLDGSSVEGDKRLLLQIFSETLMGPVFFEFIQRKGDDGFGEGNFKALFESIERDQVRRGVLTAD | 0.76 DeltaE/24 min μg Protein | >5.6 | >5.6 | >5.6 | >5.6 |
